Source: the Immune Epitope Database (IEDB)

Experiments:
Assay in all cases: IEDB peptide-MHC binding, purified MHC/competitive/radioactivity; ≥ and ≤ were set here for values at or beyond the usual limits of such assays
Details in all cases: source organism: Bordetella pertussis
[1] = biological target: HLA-B*53:01
[2] = biological target: HLA-B*44:03
[3] = biological target: HLA-B*35:01
[4] = biological target: HLA-A*02:01
[5] = biological target: HLA-B*57:01
[6] = biological target: HLA-B*07:02

TGDGGGHTD gave an IC50 [1] of 69.9 µM.
With KEDVDAAQI the IC50 [2] was 34.2 µM.
For YEYIWGLYP, the IC50 [2] was 8.39 µM.
In the case of DAKHDLTVT, the IC50 [3] is reported as 69.9 µM.
GLDVQQGTV was tested, and the IC50 [4] was 60 µM.
KAGTIAAPW was tested, and the IC50 [5] was 0.297 µM.
AGLAGPSAV was tested, and the IC50 [4] was at least 78.1 µM.
In the case of FAISAYALK, the IC50 [1] is reported as 4.42 µM.
In the case of LAAVLVNPH, the IC50 [3] is reported as 69.9 µM.
Work on DENGKPQTY yielded an IC50 [2] of 11.5 µM.
FALYDGTYL showed an IC50 [3] of 20.9 µM.
In the case of TPLGSLFAI, the IC50 [3] is reported as 1.34 µM and the IC50 [1] is reported as 8.19 µM.
With QSIVEAPEL the IC50 [4] was 46 µM.
YEYSKGPKL was tested, and the IC50 [2] was 47.7 µM.
In the case of AESNALSKR, the IC50 [2] is reported as 44.2 µM.
Work on YATNPQTQL yielded an IC50 [6] of 69.6 µM.
